According to paper PMC8130932 (PLoS Pathogens, 2021):
Numbering of substitutions follows the chain as printed.

B1: EZ 7B (antibody, V domains shown)
VH: EVQLVESSPGLVKPSETLSLTCTVSGGSISSYYWSWIRQPPGKGLEWIGYIYYSGSTNYNPSLKSRVTISVDTSKNQFSLKLSSVTAADTAVYYCARRVFGPVLPSKLGGSYWGGGAFDIWGQGTMVTVSS
VL: not shown
notes: source: HEK293T, transfected; culture supernatant or purified
B2: FG 7A (antibody, V domains shown)
VH: EVQLVESGGGVVQPGRSLRLSCAASGFTFSSYAMHWVRQAPGKGLEWVAVISYDGSNKYYADSVKGRFTISRDNSKNTLYLQMNSLRAEDTAVYYCARSHSGSYRASLDYWGQGTTVTVSS
VL: not shown
notes: as for B1
B3: FM 1A (antibody, V domains shown)
VH: EVQLLESGGGVVQPGRSLRLSCAASGFTFSSYGMHWVRQAPGKGLEWVAVIWYDGSNKYYADSVKGRFTISRDNSKNTLYLQMNSLRAEDTAVYYCAREGAVGATRGFDYWGQGTLVTVSS
VL: SYELTQPPSVSVAPGQTARITCGGNNIGSKSVHWYQQKPGQAPVLVVYDDSDRPSGIPERFSGSNSGNTATLTISRVEAGDEADYYCQVWDSSSDQGVFGGGTKLTVL
notes: as for B1
B4: FD 1D (antibody, V domains shown)
VH: B2 VH with S99A, H100G, R105L, A106N, S107W, L108F, Y110P, T116L
VL: EIVLTQSPATLSLSPGERATLSCRASQSVSSYLAWYQQKPGQAPRLLIYDASNRATGIPARFSGSGSGTDFTLTISSLEPEDFAVYYCQQRSNWPITFGQGTRLEIK
notes: as for B1
B5: FI 3A (antibody, V domains shown)
VH: EVQLLESGGGLIQPGGSLRLSCAASGFTVSSNYMSWVRQAPGKGLEWVSVIYSGGSTYYADSVKGRFTISRDNSKNTLYLQMNSLRAEDTAVYYCARDHVRPGMNIWGQGTMVTVSS
VL: not shown
notes: as for B1
B6: FD 11A (antibody, V domains shown)
VH: EVQLVESGGGVVQPGRSLRLSCAASGFTFSSYGMHWVRQAPGKGLEWVAVIWYDGSNKYYADSVKGRFTISRDNSKNTLYLQMNSLRAEDTAVYYCAKGPDILTGYYNYYYYGMDVWGQGTMVTVSS
VL: QSVLTQPPSVSGAPGQRVTISCTGSSSNIGAGYDVHWYQQLPGTAPKLLIYGNSNRPSGVPDRFSGSKSGTSASLAITGLQAEDEADYYCQSYDSSLSGFYVVFGGGTKLTVL
notes: as for B1
B7: FI 1C (antibody, V domains shown)
VH: EVQLVESGGGLVKPGGSLRLSCAASGFTFSDYYMSWIRQAPGKGLEWVSYISSSGSTIYYADSVKGRFTISRDNAKNSLYLQMNSLRAEDTAVYYCARRSNRFLIAFDIWGQGTMVTVSS
VL: QSALTQPASVSGSPGQTITISCTGTSSDVGGYNYVSWYQQHPGKAPKLMIYEVSNRPSGVSNRFSGSKSGNTASLTISGLQAEDEADYYCSSYTSSSTLVVFGGGTKLTVP
notes: as for B1
B8: FD 5D (antibody, V domains shown)
VH: EVQLVESGGGLVQPGGSLRLSCAASGFTFSSYSMNWVRQAPGKGLEWVSYISSSSSTIYYADPVKGRFTISRDNAKNSLYLQMNSLRAEDTAVYYCASPGGITAAGTSVLFGYYGMDVWGQGTMVTVSS
VL: not shown
notes: as for B1
B9: EY 6A (antibody, V domains shown)
VH: EVQLVESGGGVVQPGRSLRLSCAASAFTFSSYDMHWVRQAPGKGLEWVAVISYDGSNKYYADSVKGRFTISRDNSKNTLYLQMNSLRAEDTAVYYCAKDGGKLWVYYFDYWGQGTLVTVSS
VL: not shown
notes: as for B1
B10: FI 4A (antibody, V domains shown)
VH: EVQLVESGGGLVKPGGSLRLSCAASGFTFSRFSMNWVRQAPGKGLEWVSSISSSGSYIYFADSVKGRFTISRDNAKNSLYLQMNSLRAEDTAIYYCATYLFGDSHTYWGQGTLVTVSS
VL: QSVLTQPHSVSESPGKTVTISCTGSSGSIASNYVQWYQQRPGSAPTTVIYEDNQRPSGVPDRFSGSIDSSSNSASLTISGLKTEDEADYYCQSYDSSNLHWVFGGGTKLTVL
notes: as for B1
B11: EZ 7A (antibody, V domains shown)
VH: EVQLVESGAEVKKPGESLKISCKGSGYSFTSYWIGWVRQMPGKGLEWMGIIYPGDSDTRYSPSFQGQVTISADKSISTAYLQWSSLKASDTAMYYCARGWVYRGFPYYGMDVWGQGTMVTVSS
VL: QSALTQPRSVSGSPGQSVTISCTGTSSDVGGYNYVSWYQQHPGKAPKLMIYDVSKRPSGVPDRFSGSKSGNTASLTISGLQAEDEADYYCCSYAGSYTLVFGGGTKLTVL
notes: as for B1
B12: FJ 10B (antibody, V domains shown)
VH: QVQLVQSGAEVKKPGESLRISCKGSGYSFTSYWISWVRQMPGKGLEWMGRIDPSDSYTNYSPSFQGHVTISADKSISTAYLQWSSLKASDTAMYYCARLDPRYGPDYYGMDVWGQGTTVTVSS
VL: AIRMTQSPSSLSASVGDRVTITCRASQSISSYLNWYQQKPGKAPKLLIHAASSLQSGVPSRFSGSGSGTDFTLTMSSLQPEDFATYYCQQSYSTPLTFGGGTKVEIR
notes: as for B1
B13: FM 7B (antibody, V domains shown)
VH: EVQLVQSGAEVKKPGASVKVSCKASGYTFTSYAMHWVRQAPGQRLEWMGWINTGNGNTKYSQKFQGRVTITRDTSASTAYMELSSLRSEDTAVYYCARDPTYCSSTSCYPFSWFDPWGQGTLVTVSS
VL: NFMLTQPPSVSVAPGQTARITCGGNNIGSKSVHWYQQKPGQAPVLVVYDDSDRPSGIPERFSGSNSGNTATLTISRVEAGDEADYYCQVWDSTGDHSWVFGGGTKLTVL
notes: as for B1
B14: FN 12A (antibody, V domains shown)
VH: QVQLVQSGAEVKKPGSSVKVSCKASGGTFSSYAISWVRQAPGQGLEWMGRIIPILGIANYAQKFQGRVTITADKSTSTAYMELSSLRSEDTAVYYCARSGCSSTSCPSNLYYYYYGMDVWGQGTTVTVSS
VL: QSVLTQPPSVSAAPGQKVTISCSGSSSNIGNNYVSWYQQLPGTAPKLLIYDNNKRPSGIPDRFSGSKSGTSATLGITGLQTGDEADYYCGTWDSSLSALVFGGGTKLTVL
notes: as for B1
B15: FD 7C (antibody, V domains shown)
VH: QLQLQESGPGLVKPSETLSLTCTVSGGSISSYYWSWIRQPPGKGLEWIGYIYYSGSTNYNPSLKSRVTISVDTSKNQFSLKLSSVTAADTAVYYCARDYRFGELFGRFAWFDPWGQGTLVTVSS
VL: not shown
notes: as for B1
B16: FD 11C (antibody, V domains shown)
VH: EVQLLESGPGLVKPSETLSLTCTVSGGSISSSSYYWGWIRQPPGKGLEWIGSIYYSGSTYYNPSLKSRVTISVDTSKNQFSLKLSSVTAADTAVYYCAREYYYGSETKKYYYYYGMDVWGQGTTVTVSS
VL: not shown
notes: as for B1
B17: FD 7D (antibody, V domains shown)
VH: EVQLVESGAEVKKPGESLRISCKGSGYSFTSYWISWVRQMPGKGLEWMGRIDPSDSYTNYSPSFQGHVTISADKSISTAYLQWSSLKASDTAMYYCARHSDCSSTSCYFVDAFDIWGQGTMVTVSS
VL: not shown
notes: as for B1
B18: FG 12C (antibody, V domains shown)
VH: EVQLVESGGGLVQPGRSLRLSCAASGFTFDDYAMHWVRQAPGKGLEWVSGISWNSGSIGYADSVKGRFTISRDNAKNSLYLQMNSLRAEDTALYYCAKDMRVHDYGDYYFDYWGQGTLVTVSS
VL: B3 VL with Q16K, V47I, D49Y, Q96H, G97P
notes: as for B1
B19: FN 8C (antibody, V domains shown)
VH: QVQLVESGGGVVQPGRSLRLSCAASGFTFSSYGMHWVRQAPGKGLEWVAVISYDGSNKYYADTVKGRFTISRDNSKNTLYLQMNSLRAEDTAVYYCARERTYYDILTGYRHYYGMDVWGQGTTVTVSS
VL: B3 VL with Q96H, G97W
notes: as for B1
B20: FD 5E (antibody, V domains shown)
VH: EVQLVESGGVVVQPGGSLRLSCAASGFTFDDYAMHWVRQAPGKGLEWVSLISWDGGSTYYADSVKGRFTISRDNSKNSLYLQMNSLRAEDTALYYCAKDSVRFRYYYGMDVWGQGTTVTVSS
VL: B4 VL with I96L, Q100P, R103K, L104V, E105D
notes: as for B1
B21: EW 9B (antibody, V domains shown)
VH: EVQLVQSGAEVKKPGASVKVSCKASGYTFTSYYMHWVRQAPGQGLEWMGIINPSGGSTSYAQKFQGRVTMTRDTSTSTVYMELSSLRSEDTAVYYCAREDGVVPAANLMISLEDYYYYGMDVWGQGTTVTVSS
VL: B4 VL with I96L, Q100G, R103K, L104V, E105D
notes: as for B1
B22: FD 11D (antibody, V domains shown)
VH: EVQLVESGGGVVQPGRSLRLSCAASGFTFSSYGMHWVRQAPGKGLEWVAVISYDGSNKYYADSVKGRFTISRDNSKNTLYLQMNSLRAEDTAVYYCAKEGAGSGWYRHHKPGYYFDYWGQGTLVTVSS
VL: not shown
notes: as for B1

target: SARS-CoV-2 nucleocapsid, recombinant (SARS-CoV-2, reference sequence, UniProt P0DTC9); assay: ELISA; details: not given

Row | Binder | OD450
1 | B1 | 1.01 OD450

target: T1, SARS-CoV-2 spike S2 subunit, recombinant (SARS-CoV-2, reference sequence, UniProt P0DTC2); assay: ELISA; details: not given
T1 construct: source: bought: Sino Biologicals, baculovirus-insect cells

Row | Binder | OD450
2 | B2 | 1.05 OD450
3 | B3 | 0.88 OD450
4 | B4 | 1.06 OD450

target: T2, SARS-CoV-2 spike receptor-binding domain, recombinant (SARS-CoV-2, reference sequence, UniProt P0DTC2); assay: ELISA; details: not given
T2 construct: also called RBD; source: bought: Sino Biologicals, baculovirus-insect cells

Row | Binder | OD450
5 | B5 | 1.12 OD450
6 | B6 | 1.17 OD450
7 | B7 | 1.22 OD450
8 | B8 | 1.19 OD450
9 | B9 | 1.18 OD450
10 | B10 | 1.12 OD450
11 | B11 | 1.12 OD450
12 | B12 | 1.22 OD450
13 | B13 | 1.27 OD450
14 | B14 | 1.33 OD450

target: T3, SARS-CoV-2 NTD on MDCK-SIAT1 cells (SARS-CoV-2 (so in the source)); assay: flow cytometry on cells; details: one partner purified
T3 construct: also called MDCK-NTD

Row | Binder | binding result
15 | B15 | binds
16 | B4 | no binding
17 | B14 | no binding
18 | B16 | no binding
19 | B17 | no binding
20 | B18 | no binding
21 | B19 | no binding
22 | B20 | no binding
23 | B21 | no binding

target: T4, SARS-CoV-2 RBD (amino acids 340-538) on MDCK-SIAT1 cells (SARS-CoV-2 (so in the source)); assay: flow cytometry on cells; details: one partner purified
T4 construct: also called MDCK-RBD; source: MDCK-SIAT1, stably transduced (lentiviral vector), on the cell surface

Row | Binder | binding result
24 | B5 | binds
25 | B15 | no binding
26 | B6 | binds
27 | B7 | binds
28 | B4 | no binding
29 | B8 | binds
30 | B9 | binds
31 | B10 | binds
32 | B11 | binds
33 | B12 | binds
34 | B13 | binds
35 | B14 | binds
36 | B22 | no binding
37 | B16 | no binding
38 | B17 | no binding
39 | B18 | no binding
40 | B19 | no binding
41 | B20 | no binding
42 | B21 | no binding
